From patent publication US7442773B2, “Universal peptide-binding scaffolds and protein chips” (The Board of Trustees of The University of Illinois, priority 2004, dated 2008)

Biological target: biotinylated HA306-318 peptide
Format: binding, influenza virus
Conditions: 20 hours at 37° C., flow cytometry, estimated, read-out: apparent dissociation constant KD of the biotinylated HA306-318 peptide complex

B1: DWP-7: evolved single-chain HLA-DR1 variant (α-linker-β) from library lib-αβ, SEQ ID NOs:35 and 36 (protein)
chain: RKEEHVITQAEFYLNPDQSGEFMFDFDGDEIFHVDMAKKETVWRLEEFGRFASFEAQGALANIAVDKANLEIMTKRSNYTPITNVPPEVTVLTNSPVELREPNVLICYIDKFTPPVVNVTWLRNGKPVTTGVSETVFLPREDHLFRKFHYLPFLPSTEDVYDCRVEHWGLDEPLLKHWEFNAPSPLPETTENLGGGGSGGGRSGGGGSGDTRPRFLWQHKFECHFFNGTERVRLLERCIYNQEESVRFDSDVGEYRAVTELGRPAAEYWNSQKDLLEQRRAAADTYCRHNYGVGESFTVRRRVEPKVTVYPSKTQPLQHHNLLVCSVSGFYPGSIEVRWFRNGQEEKAGVVSTGLIQNGDWTFQTLVMLETVPRSGEVYTCQVEHPSVTSPLTVEWRARSESAQSKLESRGPFEGKPIPNPLLGLDSTRTGHHHHHH
modifications: Sequence of mutant DWP-7
Kd: 5 µM
